Results on one protein are retold here after US7078233.

This data set has as its target T1, 6-methylsalicylic acid synthase (6-MSAS) from Penicillium patulum, P22367.
T1 chain: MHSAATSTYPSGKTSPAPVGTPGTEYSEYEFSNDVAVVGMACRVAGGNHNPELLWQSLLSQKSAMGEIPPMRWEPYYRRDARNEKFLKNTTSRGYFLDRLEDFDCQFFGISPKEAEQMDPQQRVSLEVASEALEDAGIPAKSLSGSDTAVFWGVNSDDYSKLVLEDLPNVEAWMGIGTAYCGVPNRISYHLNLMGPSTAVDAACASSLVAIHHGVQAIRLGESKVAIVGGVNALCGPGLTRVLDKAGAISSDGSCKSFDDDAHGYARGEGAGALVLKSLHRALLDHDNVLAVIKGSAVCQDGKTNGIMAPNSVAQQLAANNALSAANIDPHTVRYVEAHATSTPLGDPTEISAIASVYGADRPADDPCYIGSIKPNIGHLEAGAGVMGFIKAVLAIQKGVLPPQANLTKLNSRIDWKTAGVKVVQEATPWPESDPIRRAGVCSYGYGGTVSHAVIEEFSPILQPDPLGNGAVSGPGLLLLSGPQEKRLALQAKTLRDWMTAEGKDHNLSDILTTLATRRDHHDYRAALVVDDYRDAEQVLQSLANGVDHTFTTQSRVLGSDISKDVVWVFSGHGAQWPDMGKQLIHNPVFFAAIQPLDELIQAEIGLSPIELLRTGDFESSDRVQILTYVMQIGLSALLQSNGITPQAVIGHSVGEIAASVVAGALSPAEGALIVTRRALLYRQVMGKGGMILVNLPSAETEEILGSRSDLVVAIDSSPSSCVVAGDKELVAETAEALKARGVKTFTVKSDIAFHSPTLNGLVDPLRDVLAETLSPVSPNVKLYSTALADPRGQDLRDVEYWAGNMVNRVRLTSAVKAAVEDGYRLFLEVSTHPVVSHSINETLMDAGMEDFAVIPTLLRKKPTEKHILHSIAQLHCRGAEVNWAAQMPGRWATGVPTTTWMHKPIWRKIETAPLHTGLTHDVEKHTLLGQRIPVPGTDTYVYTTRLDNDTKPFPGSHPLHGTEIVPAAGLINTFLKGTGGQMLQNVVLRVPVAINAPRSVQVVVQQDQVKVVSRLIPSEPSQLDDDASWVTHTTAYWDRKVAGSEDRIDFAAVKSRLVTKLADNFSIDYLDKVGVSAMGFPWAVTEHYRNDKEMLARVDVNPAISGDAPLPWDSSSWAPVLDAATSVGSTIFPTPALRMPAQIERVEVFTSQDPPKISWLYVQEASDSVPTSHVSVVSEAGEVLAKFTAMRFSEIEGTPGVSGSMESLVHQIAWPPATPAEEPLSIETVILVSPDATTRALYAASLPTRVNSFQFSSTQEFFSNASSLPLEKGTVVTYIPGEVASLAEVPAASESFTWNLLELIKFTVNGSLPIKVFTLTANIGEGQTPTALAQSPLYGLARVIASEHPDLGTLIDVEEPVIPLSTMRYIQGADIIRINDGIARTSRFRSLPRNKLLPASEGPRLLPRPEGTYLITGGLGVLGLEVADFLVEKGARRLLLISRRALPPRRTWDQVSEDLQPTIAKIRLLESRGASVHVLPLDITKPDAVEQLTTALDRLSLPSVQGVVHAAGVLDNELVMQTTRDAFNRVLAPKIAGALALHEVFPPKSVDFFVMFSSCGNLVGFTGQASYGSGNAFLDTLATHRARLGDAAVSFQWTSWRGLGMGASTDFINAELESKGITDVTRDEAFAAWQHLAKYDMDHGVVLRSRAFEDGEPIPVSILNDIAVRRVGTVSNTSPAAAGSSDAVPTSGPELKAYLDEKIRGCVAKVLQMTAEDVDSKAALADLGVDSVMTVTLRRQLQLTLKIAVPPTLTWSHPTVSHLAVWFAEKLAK

B1: Bacillus subtilis surfactin holo ACP synthase (sfp) (protein)
chain: MKIYGIYMDRPLSQEENERFMSFISPEKREKCRRFYHKEDAHRTLLGDVLVRSVISRQYQLDKSDIRFSTQEYGKPCIPDLPDAHFNISHSGRWVICAFDSQPIGIDIEKTKPISLEIAKRFFSKTEYSDLLAKDKDEQTDYFYHLWSMKESFIKQEGKGLSLPLDSFSVRLHQDGQVSIELPDSHSPCYIKTYEVDPGYKMAVCAAHPDFPEDITMVSYEELL
In the case of B1, the “radioactivity from labeled beta-alanine in the 190 kD 6-MSAS band on SDS-PAGE, E. coli SJ16 cotransformed with plasmids 108 (sfp) and 109 (6-MSAS)” value was “a detectable amount of radioactivity was found in the 190 kD 6-MSAS band”.
